Numbering of substitutions follows the chain as printed.
T1: human IGSF11 (VSIG3) on cells (human, UniProt Q5DX21 23-431)
T1 sequence: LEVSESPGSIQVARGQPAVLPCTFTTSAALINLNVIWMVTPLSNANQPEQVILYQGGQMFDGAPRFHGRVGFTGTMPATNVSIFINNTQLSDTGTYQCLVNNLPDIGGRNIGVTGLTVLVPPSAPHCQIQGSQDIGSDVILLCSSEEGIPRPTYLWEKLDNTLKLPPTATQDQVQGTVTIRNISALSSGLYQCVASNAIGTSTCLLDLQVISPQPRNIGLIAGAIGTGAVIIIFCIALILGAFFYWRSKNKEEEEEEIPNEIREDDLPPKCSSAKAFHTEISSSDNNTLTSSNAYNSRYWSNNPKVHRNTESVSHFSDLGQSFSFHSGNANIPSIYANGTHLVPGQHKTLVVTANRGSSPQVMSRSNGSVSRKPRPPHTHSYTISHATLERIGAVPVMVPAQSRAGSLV

T2: recombinant murine IGSF11 extracellular domain (ECD) (mouse, UniProt P0C673 23-240, biotinylated)
T2 construct: also called Mouse IGSF11; murine ECD-IGSF11
T2 sequence: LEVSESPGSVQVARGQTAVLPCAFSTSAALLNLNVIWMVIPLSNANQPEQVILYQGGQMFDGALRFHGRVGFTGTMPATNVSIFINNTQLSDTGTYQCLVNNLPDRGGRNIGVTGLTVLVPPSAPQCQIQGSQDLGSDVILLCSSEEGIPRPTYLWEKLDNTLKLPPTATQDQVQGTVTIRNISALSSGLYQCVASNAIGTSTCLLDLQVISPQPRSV

T3: His-tagged extracellular domain (ECD) of human IGSF11 (VSIG3) (human, UniProt Q5DX21 23-241)
T3 construct: partly bought (SinoBiological 13094-H08H); also called IGSF11-HIS; HIS-IGSF11; not shown: HIS6 tag
T3 sequence: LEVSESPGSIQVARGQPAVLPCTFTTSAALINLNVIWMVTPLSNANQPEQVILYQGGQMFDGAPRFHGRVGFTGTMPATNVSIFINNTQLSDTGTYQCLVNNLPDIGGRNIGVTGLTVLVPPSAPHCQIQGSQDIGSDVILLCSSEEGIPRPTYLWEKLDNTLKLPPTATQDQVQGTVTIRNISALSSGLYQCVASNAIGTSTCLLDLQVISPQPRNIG

T4: IGSF11 ECD fused to murine-Fc (human; mouse, UniProt Q5DX21 23-241)
T4 construct: also called Fc-fusion IGSF11 ECD; full-length ECD of IGSF11; not shown: murine Fc
T4 sequence: T3 sequence

B1: A-031 (scFv format) (scFv, V domains shown)
VH: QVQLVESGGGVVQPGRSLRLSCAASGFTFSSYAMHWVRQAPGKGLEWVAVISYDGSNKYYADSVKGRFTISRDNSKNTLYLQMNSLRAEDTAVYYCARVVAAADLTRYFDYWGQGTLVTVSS
VL: EIVLTQSPGTVSLSPGERATLSCRASQSVPKNYLAWFQQKPGQAPRLVIHTASSRAPGIPDRFTGSGSGTDFTLTISRLEPEDFAVYYCQQYGTSPNTFGQGTKLDIK
notes: scFv
B2: C-017 (Fab format) (Fab, V domains shown)
VH: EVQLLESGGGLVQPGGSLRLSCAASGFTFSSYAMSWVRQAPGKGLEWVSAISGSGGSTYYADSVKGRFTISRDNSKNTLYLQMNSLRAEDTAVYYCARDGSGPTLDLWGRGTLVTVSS
VL: DIQMTQSPSSLSASVGDRVTITCRASQSISSYLNWYQQKPGKAPKLLIYAASSLQSGVPSRFSGSGSGTDFTLTISSLQPEDFATYYCQQHRYIPPWTFGQGTKVEIK
notes: Fab in E. coli lysate
B3: C-016 (Fab format) (Fab, V domains shown)
VH: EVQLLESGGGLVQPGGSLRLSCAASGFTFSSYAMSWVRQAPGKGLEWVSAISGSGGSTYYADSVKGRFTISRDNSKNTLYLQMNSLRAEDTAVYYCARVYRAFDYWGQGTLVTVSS
VL: ASVLTQPPSVSAAPGQKVTISCSGSSSNIGNNYVSWYQQLPGTAPKLLIYDNNKRPSGIPDRFSGSKSGTSATLGITGLQAEDEADYYCHLYTEAESHWVFGGGTKLTVL
notes: Fab in E. coli lysate
B4: C-026 (Fab format) (Fab, V domains shown)
VH: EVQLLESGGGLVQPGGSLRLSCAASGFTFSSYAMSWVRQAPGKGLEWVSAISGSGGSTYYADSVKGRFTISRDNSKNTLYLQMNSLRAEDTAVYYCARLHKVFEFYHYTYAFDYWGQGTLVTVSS
VL: B3 VL with H90A, L91S, T93S, E94S, A95E, E96T, H98G
notes: Fab in E. coli lysate
B5: C-002 (Fab format) (Fab, V domains shown)
VH: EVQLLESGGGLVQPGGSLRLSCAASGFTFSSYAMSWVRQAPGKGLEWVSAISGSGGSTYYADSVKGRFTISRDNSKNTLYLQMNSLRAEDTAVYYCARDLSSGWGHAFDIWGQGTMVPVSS
VL: B3 VL with H90L, L91S, E94T, A95S, S97H, W99L
notes: Fab in E. coli lysate
B6: C-020 (Fab format) (Fab, V domains shown)
VH: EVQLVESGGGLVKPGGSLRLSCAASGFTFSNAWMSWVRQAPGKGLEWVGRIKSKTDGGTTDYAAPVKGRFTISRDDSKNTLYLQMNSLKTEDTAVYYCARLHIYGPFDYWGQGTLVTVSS
VL: SYELTQPPSVSVSPGQTASITCSGDKLGDKYASWYQQKPGQSPVLVIYQDSKRPSGIPERFSGSNSGNTATLTISGTQAEDEADYYCLSYLARSGSVVFGGGTKLTVL
notes: Fab in E. coli lysate
B7: C-009 (Fab format) (Fab, V domains shown)
VH: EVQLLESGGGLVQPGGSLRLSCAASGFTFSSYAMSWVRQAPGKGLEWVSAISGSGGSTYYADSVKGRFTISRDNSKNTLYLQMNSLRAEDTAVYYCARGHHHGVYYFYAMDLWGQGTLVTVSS
VL: B6 VL with L88Q, L91S, A92G, R93S, G95T, S96L, V97H
notes: Fab in E. coli lysate
B8: C-015 (Fab format) (Fab, V domains shown)
VH: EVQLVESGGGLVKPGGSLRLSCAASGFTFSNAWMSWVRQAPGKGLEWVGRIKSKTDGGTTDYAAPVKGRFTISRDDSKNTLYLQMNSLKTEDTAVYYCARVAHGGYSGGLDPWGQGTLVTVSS
VL: B6 VL with L88S, Y90T, L91G, A92T, R93A, S94H, G95T, S96L, V97A
notes: Fab in E. coli lysate
B9: C-024 (Fab format) (Fab, V domains shown)
VH: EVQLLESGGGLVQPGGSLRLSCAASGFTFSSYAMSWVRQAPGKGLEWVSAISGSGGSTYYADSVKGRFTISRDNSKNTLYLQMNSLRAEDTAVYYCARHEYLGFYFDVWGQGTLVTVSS
VL: B6 VL with S89A, Y90S, L91H, A92R, R93L, S94T, G95L, S96N, V97Y
notes: Fab in E. coli lysate
B10: C-023 (Fab format) (Fab, V domains shown)
VH: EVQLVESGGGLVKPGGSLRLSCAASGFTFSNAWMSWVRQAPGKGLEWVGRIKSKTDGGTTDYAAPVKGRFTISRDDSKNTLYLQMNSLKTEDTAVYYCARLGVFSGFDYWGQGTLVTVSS
VL: B6 VL with L88H, S89T, Y90W, L91T, A92H, R93H, G95L, S96A
notes: Fab in E. coli lysate
B11: A-014 (scFv format) (scFv, V domains shown)
VH: QVQLVQSGAEVKKPGASVKVSCKASGYTFNDYYIHWVRQAPGQGLEWMGWFNPSTGGANYAQKFQGRVTMTRDTSISTAYLEVSSLRSDDTAVYYCARGNSPDLDYWGQGTLVTVSS
VL: DIQMTQSPDSLTVSLGERATINCKSSQSLLHSSNNKNYLAWYQQRPGQPPKLLIYWASTRQSGVPDRFSGSGSGTDFTLTINSLQADDMAVYYCQQYYTTTPNTFGQGTKLEIK
notes: scFv
B12: A-030 (scFv format) (scFv, V domains shown)
VH: QVQLVQSGAEVKKPGASVKVSCKASGYTFTGYYMHWVRQAPGQGLEWMGWINPNSGNTGYAQKFQGRVTMTRNTSISTAYMELSSLRSEDTAVYYCARGGQQQLVLDDYWGQGTLVTVSS
VL: DIQLTQSPSTLSASVGDRVTITCRASQSIGGWLAWYQHKPGKAPKLLIYAASSLQSGVPSRFSGSGSGTDFTLTISSLQPEDFATYYCRQSYSTPPTFGQGTKVEIK
notes: scFv
B13: A-037 (scFv format) (scFv, V domains shown)
VH: B12 VH
VL: NFMLTQPHSVSESPGKTVTISCTGSSGSIASNYVQWYQQRPGSAPTTVIYEDNQRPSGVPDRFSGSIDSSSNSASLTISGLKTEDEADYYCQSYDSSNQRVFGGGTKLTVL
notes: scFv
B14: A-017 (scFv format) (scFv, V domains shown)
VH: B12 VH
VL: DIVLTQSPASLSASVGDRITITCQASQDIRHHLNWFQHKPGKAPKLLISDSSNLETGVPSRFSGSGSGTDFSFTISRLQPEDIATYYCQQYDSLPRTFGQGTKLEIK
notes: scFv
B15: A-032 (scFv format) (scFv, V domains shown)
VH: B12 VH with I51M
VL: not shown
B16: A-019 (scFv format) (scFv, V domains shown)
VH: B12 VH
VL: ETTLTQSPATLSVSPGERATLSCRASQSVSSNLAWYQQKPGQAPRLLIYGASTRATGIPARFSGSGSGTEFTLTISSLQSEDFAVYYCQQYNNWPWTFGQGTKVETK
notes: scFv
B17: A-036 (scFv format) (scFv, V domains shown)
VH: B12 VH with N57G, G59N
VL: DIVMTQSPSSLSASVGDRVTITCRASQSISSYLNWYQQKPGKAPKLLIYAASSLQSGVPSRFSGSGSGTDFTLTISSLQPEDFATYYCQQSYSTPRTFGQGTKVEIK
notes: scFv
B18: A-010 (IgG1 format) (antibody, V domains shown)
VH: QVQLVQSGAEVKKPGASVKVSCKASGYTFTSYGISWVRQAPGQGLEWMGWISAYNGNTNYAQKLQGRVTMTTDTSTSTAYMELRSLRSDDTAVYYCARVPAWSGQFDYWGQGTLVTVSS
VL: QSALTQPASVSGSPGQSITISCTGSSSDVGGYNYVSWYQQYPGKAPKLMIYDVRSRPSGVSNRFSGSKSGNTASLTISGLQAEDEADYYCTSYTSSNTLVIFGGGTKVTVL
notes: human IgG1 format
B19: A-021 (scFv format) (scFv, V domains shown)
VH: B18 VH
VL: QSALTQPASVSGSPGQSITISCTGTSSDVGGYNYVSWYQQHPGKAPKLMIYEVTNRPSGVSDRFSGSKSANTASLTISELQAEDEAVYYCNSYTSGPTYVLFGGGTQLTVL
notes: scFv
B20: A-028 (scFv format) (scFv, V domains shown)
VH: QVQLVQSGAEVKKPGSSVKVSCKASGGTFSSYAISWVRQAPGQGLEWMGGIIPIFGTANYAQKFQGRVTITADESTSTAYMELSSLRSEDTAVYYCARVGVEYQLLWYFDYWGQGTLVTVSS
VL: DIQMTQSPSSLSASVGDRVTLTCRTSQTISNYLNWYQQKPGKAPKLLVYAASNLQSWVPSRFSGSGSGTDFTLTISSLQPEDFATYYCQQSYNASFGGGTKVEFK
notes: scFv
B21: C-021 (Fab format) (Fab, V domains shown)
VH: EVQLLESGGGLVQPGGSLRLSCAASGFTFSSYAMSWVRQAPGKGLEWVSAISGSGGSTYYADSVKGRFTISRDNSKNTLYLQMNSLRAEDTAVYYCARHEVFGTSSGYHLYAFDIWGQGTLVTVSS
VL: DIQMTQSPSSLSASVGDRVTITCRASQSISSYLNWYQQKPGKAPKLLIYAASSLQSGVPSRFSGSGSGTDFTLTISSLQPEDFATYYCQQWSGLPLTFGQGTKVEIK
notes: Fab in E. coli lysate
B22: C-022 (Fab format) (Fab, V domains shown)
VH: EVQLLESGGGLVQPGGSLRLSCAASGFTFSSYAMSWVRQAPGKGLEWVSAISGSGGSTYYADSVKGRFTISRDNSKNTLYLQMNSLRAEDTAAYYCARMAAGASWGTFDYWSQGTLVTVSS
VL: B21 VL with W91R, L94S
notes: Fab in E. coli lysate

Experiments:
[1] = target: T1, human IGSF11 (VSIG3) on cells; assay: FACS % positive cells, scFv
Streptavidin [2] = target: T5, Streptavidin (UniProt P22629 37-163, limits assumed); assay: ELISA, scFv
T5 construct: also called negative antigen; irrelevant antigen
T5 sequence (P22629 37-163 limits assumed): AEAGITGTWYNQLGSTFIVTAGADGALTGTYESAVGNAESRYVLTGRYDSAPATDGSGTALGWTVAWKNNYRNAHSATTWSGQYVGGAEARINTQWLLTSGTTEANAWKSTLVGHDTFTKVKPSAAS

[3] = target: T2, recombinant murine IGSF11 extracellular …; assay: ELISA, Fab
Streptavidin [4] = target: T5, Streptavidin; assay: ELISA, Fab
[5] = target: T3, His-tagged extracellular domain (ECD) …; assay: ELISA EC50 grade, IgG1
[6] = target: T4, IGSF11 ECD fused to murine-Fc; assay: ELISA, IgG
Excerpt: Expi293 cells (ThermoFisher) were transiently transfected with DNA sequences encoding the applicable IGSF11 domain-mFc fusions according to the manufacturer's instructions, and cultured under conditions suitable to the IGSF11 domain fusion. Cell supernatants were harvested 5 days post transfection and the expressed Fc-protein purified via Protein A affinity chromatography (GE Healthcare). IGSF11 domain Fc-fusion proteins were re-buffered into PBS pH7.4. […] The surface was blocked with 2% (w/v) skim milk powder in PBST. After three wash cycles with PBST, a dilution series of IgG-format ABPs was transferred to the immobilized the Fc-fusion IGSF11 ECD or the IGSF11 domains and incubated for 1 h. After removing all unbound antibodies by 3 wash cycles with PBST, bound IgG ABPs were detected with a goat anti-human IgG antibody conjugated with horseradish peroxidase. After three wash cycles with PBST the ELISA was developed with TMB substrate.

Row | Binder | binding result [1] | binding result (Streptavidin [2]) | A450 [3] | A450 (Streptavidin [4]) | also measured
1 | B1 | binds | no binding (tested: <0.025 or <0.05 RFU) | – | – | –
2 | B2 | – | – | < 1 | – | –
3 | B3 | – | – | < 1 | < 0.1 | –
4 | B4 | – | – | – | < 0.1 | –
5 | B5 | – | – | < 1 | < 0.1 | –
6 | B6 | – | – | < 1 | – | –
7 | B7 | – | – | – | < 0.1 | –
8 | B8 | – | – | < 1 | < 0.1 | –
9 | B9 | – | – | < 1 | – | –
10 | B10 | – | – | < 1 | < 0.1 | –
11 | B11 | binds | no binding (tested: <0.025 or <0.05 RFU) | – | – | –
12 | B12 | binds | no binding (tested: <0.025 or <0.05 RFU) | – | – | –
13 | B13 | binds | no binding (tested: <0.025 or <0.05 RFU) | – | – | –
14 | B14 | binds | no binding (tested: <0.025 or <0.05 RFU) | – | – | –
15 | B15 | binds | no binding (tested: <0.025 or <0.05 RFU) | – | – | –
16 | B16 | binds | no binding (tested: <0.025 or <0.05 RFU) | – | – | –
17 | B17 | binds | no binding (tested: <0.025 or <0.05 RFU) | – | – | –
18 | B18 | – | – | – | – | EC50 [5]: < 0.02 nM; EC50 [6]: < 1 nM
19 | B19 | binds | no binding (tested: <0.025 or <0.05 RFU) | – | – | –
20 | B20 | binds | no binding (tested: <0.025 or <0.05 RFU) | – | – | –
21 | B21 | – | – | < 1 | < 0.1 | –
22 | B22 | – | – | – | < 0.1 | –

Source: patent US20240010720A1 (IOMX THERAPEUTICS, published 2024)
